Assay: soluble on expression in E. coli; label from the status in PepcDB or PDB records

Sequence	soluble on expression in E. coli
MIFENRLALSAMAGVNNAEFCRKQKASLVILGGFNADRRALEAAEKAVKRGRKEFLFGIDGIEGEIKKLGRRKFAVNVRSSSLEGYLNVAELVAEFEGIIEINAHCRQPEFVEIGCGEWLLFNHERLVEIVSKTSRIAPTFVKIRGGHKLDYEKIARKLFDAGCLAIHVDAMIPGGGCDFSLIERISRIGNVIGNNSFVDIESGERIIMAGAKMASAARAVLRDENFFEKMLRSPLLSQPVELSCGRFR	not soluble
MSAAGDLRRRARLSRLVSFSASHRLHSPSLSDEENLRVFGKCNNPNGHGHNYKVVVTVHGEIDPVTGMVMNLTDLKEYMEEAIMKPLDHKNLDLDVPYFADAVSTTENVAVYIWESLQKLLPVGALYKVKVFETDNNIVVYKGE	soluble
MGSDKIHHHHHHMKIKKYVAESIREAMIMIRRELGENAVILSSRRIKKGGFFGIGGKTYFEVTAAVEEERKKEENTSYRLQEILVKNRQSSNDNIKGEFDEIKRTINEIKQMLVTEKRQTLPEGLSKILYGMEKQEILPEIRYKLIDFLKMKFGDLDPNSNETFKILSEQFVNLVKTNAPDFKNAKVLFVGTTGVGKTTSLAKLAARFKIDEKKRVAILTLDTYRIAAAEQLKIYADIMDIPMKIAYTPKEAEYEMMALKDYDIVLVDTAGRSHQNDLQMSELRALSEAVKPNITFLVLSMNYKLDDMKRIVERFSAVKPTHIILTKMDETSVYGTFVNISEITGLPIAFVTNGQRVPDDIFEANPVELARIVAGEVLNHARSSGTSEKE	not soluble
MAHHHHHHMEGQSELVERVVRMQLTSPDFAEYCVAHVTDPKHRFLFSRNEDEAERRLYVRLLEGRGHQKRAETPAVVAPAFAPERTSSLMTHGGTAVLWMSLLDYFSSTPGVRGPHMPHMFRTEADLTAFVDMLDGAQREHVSLEDVVQFMLRRLPMTEVFLYVLCYMCDVRIHEVRRETRRRSSGACVTDSADGASDEKKLQAAGTLLFIANMLLLQHDALERPLRYLSVFEFYMQRMVEALAGTVPKNSPVDTFLRETVMVWSEGHVFGEEALDCMKRAIGCSLG	not soluble
MERIDSHVSPRYAQIPTFMRLPHDPQPRGYDVVVIGAPYDGGTSYRPGARFGPQAIRSESGLIHGVGIDRGPGTFDLINCVDAGDINLTPFDMNIAIDTAQSHLSGLLKANAAFLMIGGDHSLTVAALRAVAEQHGPLAVVHLDAHSDTNPAFYGGRYHHGTPFRHGIDEKLIDPAAMVQIGIRGHNPKPDSLDYARGHGVRVVTADEFGELGVGGTADLIREKVGQRPVYVSVDIDVVDPAFAPGTGTPAPGGLLSREVLALLRCVGDLKPVGFDVMEVSPLYDHGGITSILATEIGAELLYQYARAHRTQL	soluble
MSLEFLNSLSYGISSHEVNNEFKQIFRELLTNHIIKEHKNKYYLNNGFAFGVLDISSKGTGFLQCFDESFKKDLLIENKNLKGANYKDIVAVKLLPLKKKRPSAKVILVLKRANETSLMITKRYGEAVLGMNIKTGLSTALKASQKSLKALPLGTILKIENENNNIIEVLGHIDDESVDEKISLALFNKNNEFSDACIKEALANGDSVDASMYENRMDLRALPFCTIDPIHAKDFDDAIYFDTQKREIYVAIADVSEYVYAYSAIDKEARNRGFSIYFPHIAIPMLPRPLSENICSLKPHLDRLAYCFKITLNHENKVIKEELFEGIINSKRRFNYDEVDEILIQKPDLKELSWLYELFEITKNLRKMRLKNAFEFRTEELRMNLDENLSLKSTVFEKDTPSHNLIEDCMLLANKAAAKLIDIGVFRNHLSADVRKIDKLLNELRELGIDVNFKPNLPELIRDIQALADELNLRAEVDKLIIKAQKKAEYSSVNAGHFGLGFDKYSHFTSPIRRYSDLILHRLLKAKQKNDEKLFNYLLLNIESTCENLSTLEREADKVAFDFMDRKFARWAAKNIGKKFKALVVQNDGVCIAKLDDEIKGADIILYDTRVNLLENVEVQIMEADIVMAKIYAKITQRLIKEENVEGHHHHHH	not soluble
MGSDKIHHHHHHAQNFSDYFEDKTLRADYIFTGDAKKQEVYLDELSSLPQWAGRKHHLAELPLAGNGEITMKDKATGETIYRTSFSSLFQEWVSEEEASRIKRGFENSFLLPYPKKEAVVTISLKDVYHKVNASLTHEIIPNDILIHQRGTNHITPHRYLLQNGNAADCIDVAIMAEGYTEKEMDIFYKDAQTACDALFSHEPFKKLKDKFNIVAVASPSEDSGVSIPGQGKWKSTAVSSHFNTFYSDRYLTTSRVKSIHNWLAGIPYEHIIILANTDTYGGGGIYNSYTLTTAHHPDFQPVVVHEFGHSFGGLADEYAYTETPSPQYPYEVEPWEPNITTLIDFDSKWKDMIPEGTAIPTPVATENADLYTKVGVYEGAGYTQKGLYRPTTECRMKINEAPAFCPVCQRALERLINFYTAK	not soluble
MKRTVTVKLQPSKAQEETLKELAIISSKAWNKVNYLRRQEFFEGKPVDFLKTEKIVYEEFKSEIGSATVQQICRKNADAWRSFFSLIRSKRNGELPKWFKPKPPEYVKEGGLIILRNDQYKIEGNKLILKGLGKFKRLEVQFKGRIHLKGKQGRLEITFDPIRRKWYAHISYTVKEKLYGGEWVEVLRQPLGNLSAGIDLGVNNLMAVYVENGESFLVNGRPLKSIDFYWRKRIAEYQSKLNKSGVKKGRKLSKMHQKAKLQAKHYINTAIRRTVEKLYHLGVSRIVVGYPKGISRNSDKGKKQNYLLSHVWRFNYVIKRLREVAEEYGIQVLIVDEAFTSKLCPVCGKPHKGQGLFEDYLSVPRRGLPLMPTWLELSTFLEHHHHHH	soluble
MGSDKIHHHHHHMNIAFVINPVAGLGATLNLKGSDGLALEDVSKSISIVRSHRFLKKLDFNGLHFFVPSGCMGESEVSIYTKEYDVIYTPSSPTTRQDTINFVKSIESADLLVFVGGDGTARDILNSRNDLPVIGVPAGVKMYSSVFAISPERAADAVNQVAKGNYRIDKAEVVDIDEELYRKGILSVKRYGQLKVPEAQYIVENSKAEYDIAGAEDIAEYVIEHMADETYIIGPGNTCKTIEEEMGIKSNVLGFDILRNKKLIKEDASESEIYEACSDKCMLVISPVGGQNFLLGRGNKQISDRILERVGEENLIVVSSPSKAEHLKYVYIDTQIPLWSNGYVKVLVGYGRYKLVKVIR	not soluble
GPGSMYRSDTDERKRRQSVSWRKRASFIELDCGEDSFFVANNYKVIGVADGVGGWRAEGVDPSLFANALMENAKLFAETHRGERDPEKILDAAYTKVVKDGIVKVGSSTACVATLRKDDDGSHKLDVANLGDSGVMVVRNRSMYFRAHEKVHGFNAPFQLAVLPQPMVGRAFSDRVQDCVRESVPVQEGDVIVMGTDGLFDNRFNSQLAADAGWIGKVEESPIAKIPLVGFFLSGILDEKIDYVDPYRVAQRIITDAYKTSVNPDTNSPWASMLRQFGQTDAKGGKPDDITVLLSRVSTREELSNSTSW	not soluble
MLTVGILGGGQLGWMTILEGRKLGFKFHVLEDKENAPACRVADRCFRTGQISEFVDSCDIITYEFEHIKDEVLEKCESKLIPNPQALYVKKSRIREKLFLKKHGFPVPEFLVIKRDEIIDALKSFKLPVVIKAEKLGYDGKGQYRIKKLEDANQVVKNHDKEESFIIEEFVKFEAEISCIGVRDREGKTYFYPQPFNKHEEGILIYNYVPYAKLKEAEEITKRLMELLDIVGVFTVEFFLLKDGRVLINEFAPRVHNTGHWTLDGAYTSQFENLLRAITEMPLGSTELKLPSGMVNILGKSYEEIPLKEILSVEGAKLYWYGKEKKPRRKVGHVNVVGRSKEEVVEKVERVFTLLKGSREKLPAP	soluble
MGSDKIHHHHHHVDDRPGTTGIRRTNPVMTDPKHRTEAPFDEQIIREYLIDNPDFFGRYPELLLAMRMSHTERGTVSLLERRQEMYRNRVAQLEEEITALMTQARRNEKIFRFNNDLQFKLLASAALGDVRQILSQALMSEFGFTHVRLITVHDVDSELSAIWSNRLARGHYFGRLTASESRRLFGSEVGSVALTRLSEHCGQVVFAIASQDPAHFHPEMDNLLLDQLRRILDHLLPRL	not soluble
